How the values were obtained:
[1] = target: T1, hDicer (human recombinant Dicer) (human, UniProt Q9UPY3 1-1922); assay: competition; displaces labeled ATD_13.6; Filter binding: 20 mM Tris-HCl pH 7.5, 250 mM NaCl (membrane pre-soak/reaction buffer), 37 C 30 min; hDicer EMSA: 20 min at 4 C, Dicer preincubated without divalent cations (Fig S1), native PAGE; details: protein: commercial; hairpin
[2] = target: T1, hDicer (human recombinant Dicer); assay: competition; displaces labeled ATD_13.6 (most profound effect); Filter binding: 20 mM Tris-HCl pH 7.5, 250 mM NaCl (membrane pre-soak/reaction buffer), 37 C 30 min; hDicer EMSA: 20 min at 4 C, Dicer preincubated without divalent cations (Fig S1), native PAGE; details: protein: commercial; hairpin
[3] = target: T1, hDicer (human recombinant Dicer); assay: EMSA; no divalent metal, 4 C; Filter binding: 20 mM Tris-HCl pH 7.5, 250 mM NaCl (membrane pre-soak/reaction buffer), 37 C 30 min; hDicer EMSA: 20 min at 4 C, Dicer preincubated without divalent cations (Fig S1), native PAGE; details: protein: commercial; label: 5'-32P
[4] = target: T1, hDicer (human recombinant Dicer); assay: EMSA; 4 C; Filter binding: 20 mM Tris-HCl pH 7.5, 250 mM NaCl (membrane pre-soak/reaction buffer), 37 C 30 min; hDicer EMSA: 20 min at 4 C, Dicer preincubated without divalent cations (Fig S1), native PAGE; details: protein: commercial; label: 5'-32P; single strand

B1: pre-miR-21 (structured_RNA)
RNA: AGCUUAUCAGACUGAUGUUGACUGUUGAAUCUCAUGGCAACACCAGUCGAUGGGCUGU
- binding result [1]: binds

B2: pre-miR-16-1 (structured_RNA)
RNA: UAGCAGCACGUAAAUAUUGGCGUUAAGAUUCUAAAAUUAUCUCCAGUAUUAACUGUGCUGCUGAA
- binding result [2]: binds

B3: ATD_15.52 (structured_RNA)
RNA: GGGAGAAUCAUAAGUAGCGCAGUGAGUCGUUGUGCUGCCCAUGUUAACAGUUAGCC
- binding result [3]: binds

Binder: GGGGCAGCGCAG (XNA, 2'-O-methyl at every ribose) [2OMe-AL-210]
- binding result [4]: binds

B4: pre-miR-33a (structured_RNA)
RNA: GUGCAUUGUAGUUGCAUUGCAUGUUCUGGUGGUACCCAUGCAAUGUUUCCACAGUGCAUC
- binding result [1]: binds

From paper PMC3812226, “A New Short Oligonucleotide-Based Strategy for the Precursor-Specific Regulation of microRNA Processing by Dicer”
